Source: patent publication US20110190270A1, “METHODS OF TREATING THROMBOEMBOLIC DISORDERS” (MONASH UNIVERSITY, priority 2008, published 2011)

Tested on: occlusive blood clot in the carotid artery
Assay: carotid artery occlusion model, clot lysis and vascular reperfusion
Format: in vivo, mice
Details: regimens A-H of FIGS. 8 and 9, blood flow monitored 60 minutes
Experimental: Mice were anaesthetised and minor surgery performed to expose to the carotid artery and jugular vein. A Doppler flow probe was placed around the carotid artery to monitor blood flow through this blood vessel, and a catheter placed in the jugular vein to administer drugs. A blood clot was formed in the carotid artery of the mouse through the delivery of a small electric current (4 mA for 1.25 min^g), resulting in complete blockage of blood flow through the vessel (blood flow=0 mls/min), as measured by the flow probe. After vessel blockade was established, various combinations of t-PA, urokinase, heparin, hirudin, HA1077 and Y27632 were administered, using concentrations and regimens indicated (A-H in FIGS. 8 and 9) and examined for their efficacy to dissolve blood clots and restore blood flow. Blood flow was monitored in mice receiving each drug combination for a further 60 minutes, and blood flow measurements recorded using computer software.

B1: t-PA: thrombolytic agent (protein, UniProt P00750 36-562, looked up)
Tissue-type plasminogen …: SYQVICRDEKTQMIYQQHQSWLRPVLRSNRVEYCWCNSGRAQCHSVPVKSCSEPRCFNGGTCQQALYFSDFVCQCPEGFAGKCCEIDTRATCYEDQGISYRGTWSTAESGAECTNWNSSALAQKPYSGRRPDAIRLGLGNHNYCRNPDRDSKPWCYVFKAGKYSSEFCSTPACSEGNSDCYFGNGSAYRGTHSLTESGASCLPWNSMILIGKVYTAQNPSAQALGLGKHNYCRNPDGDAKPWCHVLKNRRLTWEYCDVPSCSTCGLRQYSQPQFRIKGGLFADIASHPWQAAIFAKHRRSPGERFLCGGILISSCWILSAAHCFQERFPPHHLTVILGRTYRVVPGEEEQKFEVEKYIVHKEFDDDTYDNDIALLQLKSDSSRCAQESSVVRTVCLPPADLQLPDWTECELSGYGKHEALSPFYSERLKEAHVRLYPSSRCTSQHLLNRTVTDNMLCAGDTRSGGPQANLHDACQGDSGGPLVCLNDGRMTLVGIISWGLGCGQKDVPGVYTKVTNYLDWIRDNMRP
clot lysis and re-establishment of blood flow (in words): relatively moderate in its ability to lyse occlusive blood clots
